Source: patent US20180155451A1 (published 2018)

T1: FcγRIIa R (human, UniProt P12318 34-217)
T1 construct: extracellular domain; also called FcgRIIa R type; 2aR
T1 sequence (looked up): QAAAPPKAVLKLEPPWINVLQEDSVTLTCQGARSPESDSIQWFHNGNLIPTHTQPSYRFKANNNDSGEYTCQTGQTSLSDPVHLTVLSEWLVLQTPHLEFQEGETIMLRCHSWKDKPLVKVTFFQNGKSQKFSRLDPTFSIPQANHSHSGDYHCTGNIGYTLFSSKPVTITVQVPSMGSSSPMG


These binders were tested against T1, FcγRIIa R (assay: SPR Biacore; vs GpH7-B3/GpL16-k0 =100).

| Ho/Con_2aR | Binder |
| --- | --- |
| 43.3 % of control | GpH7-B3 variant L234_04F/GpL16-k0 (antibody, human IgG1, kappa, also called Ho Ab L234_04F) heavy: not shown light: DIVMTQSPLSLPVTPGEPASISCQASESLVHSNRNTYLHWYLQKPGQSPQLLIYKVSNRFSGVPDRFSGSGSGTDFTLKISRVEAEDVGVYYCSQNTHVPPTFGQGTKVEIERTVAAPSVFIFPPSDEQLKSGTASVVCLLNNFYPREAKVQWKVDNALQSGNSQESVTEQDSKDSTYSLSSTLTLSKADYEKHKVYACEVTHQGLSSPVTKSFNRGEC |
| 68.8 % of control | GpH7-B3 variant L328_09D/GpL16-k0 (antibody, human IgG1, kappa, also called Ho Ab L328_09D) heavy: not shown light: DIVMTQSPLSLPVTPGEPASISCQASESLVHSNRNTYLHWYLQKPGQSPQLLIYKVSNRFSGVPDRFSGSGSGTDFTLKISRVEAEDVGVYYCSQNTHVPPTFGQGTKVEIERTVAAPSVFIFPPSDEQLKSGTASVVCLLNNFYPREAKVQWKVDNALQSGNSQESVTEQDSKDSTYSLSSTLTLSKADYEKHKVYACEVTHQGLSSPVTKSFNRGEC |
| 48.1 % of control | GpH7-B3 variant L328_10E/GpL16-k0 (antibody, human IgG1, kappa, also called Ho Ab L328_10E) heavy: not shown light: DIVMTQSPLSLPVTPGEPASISCQASESLVHSNRNTYLHWYLQKPGQSPQLLIYKVSNRFSGVPDRFSGSGSGTDFTLKISRVEAEDVGVYYCSQNTHVPPTFGQGTKVEIERTVAAPSVFIFPPSDEQLKSGTASVVCLLNNFYPREAKVQWKVDNALQSGNSQESVTEQDSKDSTYSLSSTLTLSKADYEKHKVYACEVTHQGLSSPVTKSFNRGEC |
| 111 % of control | GpH7-B3 variant L235_15Y/GpL16-k0 (antibody, human IgG1, kappa, also called Ho Ab L235_15Y) heavy: not shown light: DIVMTQSPLSLPVTPGEPASISCQASESLVHSNRNTYLHWYLQKPGQSPQLLIYKVSNRFSGVPDRFSGSGSGTDFTLKISRVEAEDVGVYYCSQNTHVPPTFGQGTKVEIERTVAAPSVFIFPPSDEQLKSGTASVVCLLNNFYPREAKVQWKVDNALQSGNSQESVTEQDSKDSTYSLSSTLTLSKADYEKHKVYACEVTHQGLSSPVTKSFNRGEC |
| 114 % of control | GpH7-B3 variant L235_20W/GpL16-k0 (antibody, human IgG1, kappa, also called Ho Ab L235_20W) heavy: not shown light: DIVMTQSPLSLPVTPGEPASISCQASESLVHSNRNTYLHWYLQKPGQSPQLLIYKVSNRFSGVPDRFSGSGSGTDFTLKISRVEAEDVGVYYCSQNTHVPPTFGQGTKVEIERTVAAPSVFIFPPSDEQLKSGTASVVCLLNNFYPREAKVQWKVDNALQSGNSQESVTEQDSKDSTYSLSSTLTLSKADYEKHKVYACEVTHQGLSSPVTKSFNRGEC |
| 97 % of control | GpH7-B3 variant L328_02A/GpL16-k0 (antibody, human IgG1, kappa, also called Ho Ab L328_02A) heavy: not shown light: DIVMTQSPLSLPVTPGEPASISCQASESLVHSNRNTYLHWYLQKPGQSPQLLIYKVSNRFSGVPDRFSGSGSGTDFTLKISRVEAEDVGVYYCSQNTHVPPTFGQGTKVEIERTVAAPSVFIFPPSDEQLKSGTASVVCLLNNFYPREAKVQWKVDNALQSGNSQESVTEQDSKDSTYSLSSTLTLSKADYEKHKVYACEVTHQGLSSPVTKSFNRGEC |
| 96.4 % of control | GpH7-B3 variant K334_20W/GpL16-k0 (antibody, human IgG1, kappa, also called Ho Ab K334_20W) heavy: not shown light: DIVMTQSPLSLPVTPGEPASISCQASESLVHSNRNTYLHWYLQKPGQSPQLLIYKVSNRFSGVPDRFSGSGSGTDFTLKISRVEAEDVGVYYCSQNTHVPPTFGQGTKVEIERTVAAPSVFIFPPSDEQLKSGTASVVCLLNNFYPREAKVQWKVDNALQSGNSQESVTEQDSKDSTYSLSSTLTLSKADYEKHKVYACEVTHQGLSSPVTKSFNRGEC |
| 39.9 % of control | GpH7-B3 variant L234_10E/GpL16-k0 (antibody, human IgG1, kappa, also called Ho Ab L234_10E) heavy: not shown light: DIVMTQSPLSLPVTPGEPASISCQASESLVHSNRNTYLHWYLQKPGQSPQLLIYKVSNRFSGVPDRFSGSGSGTDFTLKISRVEAEDVGVYYCSQNTHVPPTFGQGTKVEIERTVAAPSVFIFPPSDEQLKSGTASVVCLLNNFYPREAKVQWKVDNALQSGNSQESVTEQDSKDSTYSLSSTLTLSKADYEKHKVYACEVTHQGLSSPVTKSFNRGEC |
| 73 % of control | GpH7-B3 variant L235_09D/GpL16-k0 (antibody, human IgG1, kappa, also called Ho Ab L235_09D) heavy: not shown light: DIVMTQSPLSLPVTPGEPASISCQASESLVHSNRNTYLHWYLQKPGQSPQLLIYKVSNRFSGVPDRFSGSGSGTDFTLKISRVEAEDVGVYYCSQNTHVPPTFGQGTKVEIERTVAAPSVFIFPPSDEQLKSGTASVVCLLNNFYPREAKVQWKVDNALQSGNSQESVTEQDSKDSTYSLSSTLTLSKADYEKHKVYACEVTHQGLSSPVTKSFNRGEC |
| 108 % of control | GpH7-B3 variant L328_13S/GpL16-k0 (antibody, human IgG1, kappa, also called Ho Ab L328_13S) heavy: not shown light: DIVMTQSPLSLPVTPGEPASISCQASESLVHSNRNTYLHWYLQKPGQSPQLLIYKVSNRFSGVPDRFSGSGSGTDFTLKISRVEAEDVGVYYCSQNTHVPPTFGQGTKVEIERTVAAPSVFIFPPSDEQLKSGTASVVCLLNNFYPREAKVQWKVDNALQSGNSQESVTEQDSKDSTYSLSSTLTLSKADYEKHKVYACEVTHQGLSSPVTKSFNRGEC |
| 42.8 % of control | GpH7-B3 variant L234_09D/GpL16-k0 (antibody, human IgG1, kappa, also called Ho Ab L234_09D) heavy: not shown light: DIVMTQSPLSLPVTPGEPASISCQASESLVHSNRNTYLHWYLQKPGQSPQLLIYKVSNRFSGVPDRFSGSGSGTDFTLKISRVEAEDVGVYYCSQNTHVPPTFGQGTKVEIERTVAAPSVFIFPPSDEQLKSGTASVVCLLNNFYPREAKVQWKVDNALQSGNSQESVTEQDSKDSTYSLSSTLTLSKADYEKHKVYACEVTHQGLSSPVTKSFNRGEC |
| 53.8 % of control | GpH7-B3 variant L234_20W/GpL16-k0 (antibody, human IgG1, kappa, also called Ho Ab L234_20W) heavy: not shown light: DIVMTQSPLSLPVTPGEPASISCQASESLVHSNRNTYLHWYLQKPGQSPQLLIYKVSNRFSGVPDRFSGSGSGTDFTLKISRVEAEDVGVYYCSQNTHVPPTFGQGTKVEIERTVAAPSVFIFPPSDEQLKSGTASVVCLLNNFYPREAKVQWKVDNALQSGNSQESVTEQDSKDSTYSLSSTLTLSKADYEKHKVYACEVTHQGLSSPVTKSFNRGEC |
| 98.9 % of control | GpH7-B3 variant L235_04F/GpL16-k0 (antibody, human IgG1, kappa, also called Ho Ab L235_04F) heavy: not shown light: DIVMTQSPLSLPVTPGEPASISCQASESLVHSNRNTYLHWYLQKPGQSPQLLIYKVSNRFSGVPDRFSGSGSGTDFTLKISRVEAEDVGVYYCSQNTHVPPTFGQGTKVEIERTVAAPSVFIFPPSDEQLKSGTASVVCLLNNFYPREAKVQWKVDNALQSGNSQESVTEQDSKDSTYSLSSTLTLSKADYEKHKVYACEVTHQGLSSPVTKSFNRGEC |

Further lines, the binder ahead of its results:

| Binder | Ho/Con_2aR |
| --- | --- |
| GpH7-B3 variant K326_20W/GpL16-k0 (antibody, human IgG1, kappa, also called Ho Ab K326_20W) heavy: not shown light: DIVMTQSPLSLPVTPGEPASISCQASESLVHSNRNTYLHWYLQKPGQSPQLLIYKVSNRFSGVPDRFSGSGSGTDFTLKISRVEAEDVGVYYCSQNTHVPPTFGQGTKVEIERTVAAPSVFIFPPSDEQLKSGTASVVCLLNNFYPREAKVQWKVDNALQSGNSQESVTEQDSKDSTYSLSSTLTLSKADYEKHKVYACEVTHQGLSSPVTKSFNRGEC | 120 % of control |
| GpH7-B3 variant K334_08L/GpL16-k0 (antibody, human IgG1, kappa, also called Ho Ab K334_08L) heavy: not shown light: DIVMTQSPLSLPVTPGEPASISCQASESLVHSNRNTYLHWYLQKPGQSPQLLIYKVSNRFSGVPDRFSGSGSGTDFTLKISRVEAEDVGVYYCSQNTHVPPTFGQGTKVEIERTVAAPSVFIFPPSDEQLKSGTASVVCLLNNFYPREAKVQWKVDNALQSGNSQESVTEQDSKDSTYSLSSTLTLSKADYEKHKVYACEVTHQGLSSPVTKSFNRGEC | 105 % of control |
| GpH7-B3 variant K334_05P/GpL16-k0 (antibody, human IgG1, kappa, also called Ho Ab K334_05P) heavy: not shown light: DIVMTQSPLSLPVTPGEPASISCQASESLVHSNRNTYLHWYLQKPGQSPQLLIYKVSNRFSGVPDRFSGSGSGTDFTLKISRVEAEDVGVYYCSQNTHVPPTFGQGTKVEIERTVAAPSVFIFPPSDEQLKSGTASVVCLLNNFYPREAKVQWKVDNALQSGNSQESVTEQDSKDSTYSLSSTLTLSKADYEKHKVYACEVTHQGLSSPVTKSFNRGEC | 102 % of control |
| GpH7-B3 variant K334_12R/GpL16-k0 (antibody, human IgG1, kappa, also called Ho Ab K334_12R) heavy: not shown light: DIVMTQSPLSLPVTPGEPASISCQASESLVHSNRNTYLHWYLQKPGQSPQLLIYKVSNRFSGVPDRFSGSGSGTDFTLKISRVEAEDVGVYYCSQNTHVPPTFGQGTKVEIERTVAAPSVFIFPPSDEQLKSGTASVVCLLNNFYPREAKVQWKVDNALQSGNSQESVTEQDSKDSTYSLSSTLTLSKADYEKHKVYACEVTHQGLSSPVTKSFNRGEC | 110 % of control |
| GpH7-B3 variant K334_19Q/GpL16-k0 (antibody, human IgG1, kappa, also called Ho Ab K334_19Q) heavy: not shown light: DIVMTQSPLSLPVTPGEPASISCQASESLVHSNRNTYLHWYLQKPGQSPQLLIYKVSNRFSGVPDRFSGSGSGTDFTLKISRVEAEDVGVYYCSQNTHVPPTFGQGTKVEIERTVAAPSVFIFPPSDEQLKSGTASVVCLLNNFYPREAKVQWKVDNALQSGNSQESVTEQDSKDSTYSLSSTLTLSKADYEKHKVYACEVTHQGLSSPVTKSFNRGEC | 108 % of control |
| GpH7-B3 variant K334_13S/GpL16-k0 (antibody, human IgG1, kappa, also called Ho Ab K334_13S) heavy: not shown light: DIVMTQSPLSLPVTPGEPASISCQASESLVHSNRNTYLHWYLQKPGQSPQLLIYKVSNRFSGVPDRFSGSGSGTDFTLKISRVEAEDVGVYYCSQNTHVPPTFGQGTKVEIERTVAAPSVFIFPPSDEQLKSGTASVVCLLNNFYPREAKVQWKVDNALQSGNSQESVTEQDSKDSTYSLSSTLTLSKADYEKHKVYACEVTHQGLSSPVTKSFNRGEC | 106 % of control |
| GpH7-B3 variant K334_02A/GpL16-k0 (antibody, human IgG1, kappa, also called Ho Ab K334_02A) heavy: not shown light: DIVMTQSPLSLPVTPGEPASISCQASESLVHSNRNTYLHWYLQKPGQSPQLLIYKVSNRFSGVPDRFSGSGSGTDFTLKISRVEAEDVGVYYCSQNTHVPPTFGQGTKVEIERTVAAPSVFIFPPSDEQLKSGTASVVCLLNNFYPREAKVQWKVDNALQSGNSQESVTEQDSKDSTYSLSSTLTLSKADYEKHKVYACEVTHQGLSSPVTKSFNRGEC | 100 % of control |
| GpH7-B3 variant K334_04F/GpL16-k0 (antibody, human IgG1, kappa, also called Ho Ab K334_04F) heavy: not shown light: DIVMTQSPLSLPVTPGEPASISCQASESLVHSNRNTYLHWYLQKPGQSPQLLIYKVSNRFSGVPDRFSGSGSGTDFTLKISRVEAEDVGVYYCSQNTHVPPTFGQGTKVEIERTVAAPSVFIFPPSDEQLKSGTASVVCLLNNFYPREAKVQWKVDNALQSGNSQESVTEQDSKDSTYSLSSTLTLSKADYEKHKVYACEVTHQGLSSPVTKSFNRGEC | 110 % of control |
| GpH7-B3 variant K334_10E/GpL16-k0 (antibody, human IgG1, kappa, also called Ho Ab K334_10E) heavy: not shown light: DIVMTQSPLSLPVTPGEPASISCQASESLVHSNRNTYLHWYLQKPGQSPQLLIYKVSNRFSGVPDRFSGSGSGTDFTLKISRVEAEDVGVYYCSQNTHVPPTFGQGTKVEIERTVAAPSVFIFPPSDEQLKSGTASVVCLLNNFYPREAKVQWKVDNALQSGNSQESVTEQDSKDSTYSLSSTLTLSKADYEKHKVYACEVTHQGLSSPVTKSFNRGEC | 106 % of control |
